Reference: PMC10876309, “Two Main Cancer Biomarkers as Molecular Targets of Binase Antitumor Activity” (BioMed Research International, 2024)

Molecular target: the molecule itself
Test: SDS-PAGE and western blot; binase in the immunoprecipitated samples, blotted with anti-binase antibodies; bands of 12 kDa and 25 kDa

B1: binase, ribonuclease from Bacillus pumilus (enzyme, UniProt P00649 54-162, looked up)
chain: AVINTFDGVADYLIRYKRLPDNYITKSQASALGWVASKGNLAEVAPGKSIGGDVFSNREGRLPSASGRTWREADINYVSGFRNADRLVYSSDWLIYKTTDHYATFTRIR
notes: binase, ribonuclease of Bacillus pumilus, 12.3 kDa, pI 9.5; also called bacterial ribonuclease binase; cytotoxic ribonuclease from Bacillus pumilus; source: purified as described earlier [21, 22]
**Q.** Does B1 bind?
**A.** Result: binds
